In general, Kd refers to the concentration at which binding is half-saturated. Low values mean a tighter complex, high ones a looser complex.

The values that follow come from PMC2900200 (2008).

Sequences and labels used below:
T1: LP1 peptide
T1 chain: FPSSWLQRYYLAKRR

T2: Methuselah (Mth) ectodomain, C-terminal biotinylated (Drosophila melanogaster)
T2 sequence (O97148 whole entry, looked up): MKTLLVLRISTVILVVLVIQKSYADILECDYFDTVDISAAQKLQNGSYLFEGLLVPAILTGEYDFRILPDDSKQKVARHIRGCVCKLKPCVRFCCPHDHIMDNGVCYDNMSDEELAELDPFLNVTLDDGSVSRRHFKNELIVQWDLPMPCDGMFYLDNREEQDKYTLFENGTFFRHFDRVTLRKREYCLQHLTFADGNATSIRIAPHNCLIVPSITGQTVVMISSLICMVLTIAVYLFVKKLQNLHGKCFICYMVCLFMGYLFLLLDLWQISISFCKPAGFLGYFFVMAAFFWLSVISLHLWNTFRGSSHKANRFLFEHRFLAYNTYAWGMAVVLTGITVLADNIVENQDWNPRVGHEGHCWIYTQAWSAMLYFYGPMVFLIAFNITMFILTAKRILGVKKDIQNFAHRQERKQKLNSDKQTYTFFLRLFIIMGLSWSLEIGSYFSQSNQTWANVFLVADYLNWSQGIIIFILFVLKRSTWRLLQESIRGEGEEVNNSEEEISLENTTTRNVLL

B1: Methuselah ectodomain (protein)
chain: DILECDYFDTVDISAAQKLQNGSYLFEGLLVPAILTGEYDFRILPDDSKQKVARHIRGCVCKLKPCVRFCCPHDHIMDNGVCYDNMSDEELAELDPFLNVTLDDGSVSRRHFKNELIVQWDLPMPCDGMFYLDNREEQDKYTLFENGTFFRHFDRVTLRKREYCLQHLTFADGNATSIRIAPHNCLIVPSITGQ
B2: LP1 R15Q mutant peptide (peptide)
peptide: Ac-FPSSWLQRYYLAKRQ-NH2
B3: LP1 W5F mutant peptide (peptide)
peptide: Ac-FPSSFLQRYYLAKRR-NH2
B4: LP1 L11Q mutant peptide (peptide)
peptide: Ac-FPSSWLQRYYQAKRR-NH2
B5: LP1 peptide (wild type) (peptide)
peptide: Ac-FPSSWLQRYYLAKRR-NH2
B6: LP1 W5K mutant peptide (peptide)
peptide: Ac-FPSSKLQRYYLAKRR-NH2
B7: LP1 Y9F mutant peptide (peptide)
peptide: Ac-FPSSWLQRFYLAKRR-NH2

The target in the first assay is T1, LP1 peptide.
Test: not given
With B1, the Kd is 18 nM.

The next assay has as its target T2, Methuselah (Mth) ectodomain, C-terminal biotinylated (Drosophila melanogaster). Kind of assay: SPR. For orientation: Surface plasmon resonance follows binding to a sensor surface in real time, without labels.
As to B2, the Kd came to 37.7 nM. In other words, the double-digit nanomolar range.
The molecule B3 yielded a Kd of 12000 nM.
Still for that read-out and setting: the value for B4 was 24.5 nM; that for B5 was 18.5 nM.
In turn, B6 had a Kd of more than 15000 nM.
Take B7: the Kd was 49.5 nM.
